# Where a SMILES comes first, the peptide text is derived from it. Bridges are numbered along the chain shown (N, C = ends). Roman numbers before positions name the chains, in order.
# Key:
# [1] = biological target: T1, G-CSFR (Homo sapiens, UniProt Q99062); experiment: G-CSF radioligand binding assay (SPA beads, 125I labeled G-CSF); settings: reduction by 50% of 125I labeled G-CSF bound to immobilized G-CSFR; overnight at 4° C.
# T1 construct: incubation with soluble G-CSFR harvest; made in house
# T1 sequence (Q99062 25-627): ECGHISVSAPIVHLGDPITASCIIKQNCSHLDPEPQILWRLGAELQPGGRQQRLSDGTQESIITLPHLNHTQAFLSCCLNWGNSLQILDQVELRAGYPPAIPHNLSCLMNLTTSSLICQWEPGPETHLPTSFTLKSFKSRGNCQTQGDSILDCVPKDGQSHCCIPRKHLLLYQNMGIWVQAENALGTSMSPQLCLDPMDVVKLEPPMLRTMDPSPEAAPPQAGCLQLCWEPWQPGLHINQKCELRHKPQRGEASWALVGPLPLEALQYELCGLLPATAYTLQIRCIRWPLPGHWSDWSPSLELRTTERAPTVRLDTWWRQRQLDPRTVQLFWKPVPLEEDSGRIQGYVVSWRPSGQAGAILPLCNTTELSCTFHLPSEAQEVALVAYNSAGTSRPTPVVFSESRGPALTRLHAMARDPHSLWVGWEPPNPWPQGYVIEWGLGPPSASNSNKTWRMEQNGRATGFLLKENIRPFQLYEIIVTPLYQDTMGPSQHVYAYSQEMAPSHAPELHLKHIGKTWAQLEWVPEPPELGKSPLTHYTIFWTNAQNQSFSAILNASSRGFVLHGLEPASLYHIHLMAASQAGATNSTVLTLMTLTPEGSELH
# Experimental: Streptavidin-coated scintillation proximity assay (SPA) beads (Amersham) were mixed with biotinylated anti-receptor immobilizing antibody (Ab179) followed by incubation with soluble G-CSFR harvest. Receptor-coated SPA beads were washed twice in PBS/0.1% BSA and distributed to wells of a white polystyrene 96-well microtiter plate (Packard). Serial dilutions of peptide or peptide mimetic were mixed with a constant amount of ^125I labeled G-CSF (10^5 cpm; 1290 Ci/mmol) in PBS/0.1% BSA, added to wells containing receptor-coated SPA beads, and incubated overnight at 4° C. The binding of radiolabeled G-CSF to the receptor-coated SPA bead brings the isotope in close proximity to the scintillant, which allows the emitted radiation to stimulate the scintillant to emit light. […] The amount of ^125I labeled G-CSF that was bound at equilibrium was measured by counting the plate in a TopCount (Wallac) microtiter plate luminometer. […] One can determine the concentration at which the peptide or peptide mimetic will reduce by 50% (IC50) the amount of ^125I labeled G-CSF bound to immobilized G-CSFR.
# [2] = biological target: T1, G-CSFR; experiment: Specific binding of peptides to G-CSFR; settings: total minus non-specific binding; unlabeled ligand typically G-CSF variant CS17
# Excerpt: Specific binding is binding of a ligand to a specific receptor, as opposed to non-specific binding that is mediated by non-specific interactions. Specific binding may be measured by subtraction of the non-specific binding (measured in the presence of saturating concentrations of unlabeled ligand) from the total binding (measured in the absence of saturating amounts of ligand). Typically, the unlabeled ligand used was a variant of G-CSF in which the cysteine normally found at position 17 was converted to serine (CS17).
# [3] = biological target: T2, G-CSFR (Homo sapiens, UniProt Q99062); experiment: G-CSF competition binding assay (125I labeled G-CSF, immobilized G-CSFR in microtiter wells); set-up: made in house; settings: reduction of bound 125I labeled G-CSF; overnight at 4° C.
# T2 sequence (Q99062 25-836): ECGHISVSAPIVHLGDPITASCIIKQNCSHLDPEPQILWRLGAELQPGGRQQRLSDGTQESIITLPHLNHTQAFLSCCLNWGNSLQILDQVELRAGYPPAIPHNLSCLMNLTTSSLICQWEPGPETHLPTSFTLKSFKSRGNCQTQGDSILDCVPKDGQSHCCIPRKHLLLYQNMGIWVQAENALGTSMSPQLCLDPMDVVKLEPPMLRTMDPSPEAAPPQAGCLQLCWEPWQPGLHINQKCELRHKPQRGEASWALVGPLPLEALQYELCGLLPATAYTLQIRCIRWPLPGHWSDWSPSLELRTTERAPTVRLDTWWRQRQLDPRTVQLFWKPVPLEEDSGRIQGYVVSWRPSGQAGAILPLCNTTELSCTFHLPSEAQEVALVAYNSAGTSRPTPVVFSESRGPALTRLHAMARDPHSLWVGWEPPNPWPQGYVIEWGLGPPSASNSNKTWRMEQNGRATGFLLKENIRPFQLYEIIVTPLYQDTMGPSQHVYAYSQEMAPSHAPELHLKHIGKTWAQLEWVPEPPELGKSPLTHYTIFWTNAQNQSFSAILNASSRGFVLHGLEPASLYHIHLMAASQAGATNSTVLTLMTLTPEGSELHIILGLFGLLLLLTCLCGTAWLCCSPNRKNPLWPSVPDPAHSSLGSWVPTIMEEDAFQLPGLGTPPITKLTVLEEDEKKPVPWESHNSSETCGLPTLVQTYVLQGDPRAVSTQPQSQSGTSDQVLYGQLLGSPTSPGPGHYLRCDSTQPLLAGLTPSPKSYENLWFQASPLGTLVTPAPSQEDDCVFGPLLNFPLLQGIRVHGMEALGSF
# Experimental: Determination of competitive binding was also carried out for a number of peptides. Briefly stated, G-CSFR was purified using standard techniques. The receptor was then immobilized in microtiter plate wells that were coated with acid-treated antibody (A b179) specific for a site on G-CSFR not involved with G-CSF binding. Separately, ^125I was coupled to the natural ligand G-CSF using techniques well known in the art. Test peptides were added to receptor-coated wells and allowed to bind to immobilized receptor for approximately 30 minutes. ^125 labeled G-CSF was then introduced to the wells and incubated overnight at 4°C. Unbound ^125I labeled G-CSF was removed by washing the plate several times followed by measuring the amount of radioactivity that remained in each well using conventional techniques. […] Alternatively, if reduced amounts or no ^125I labeled G-CSF was detected, the peptide did compete.
Compound,IC50 [1] [µM],Specific Binding? [2],Competitive Binding? [3]
CC(C)C[C@H](NC(=O)[C@H](CCCNC(=N)N)NC(=O)[C@H](CCC(=O)O)NC(=O)[C@H](C)NC(=O)[C@@H](NC(=O)[C@@H](N)CO)[C@@H](C)O)C(=O)N[C@@H](Cc1c[nH]c2ccccc12)C(=O)N[C@@H](Cc1ccccc1)C(=O)N[C@@H](CSSC[C@H](NC(=O)[C@H](Cc1ccccc1)NC(=O)[C@H](Cc1c[nH]c2ccccc12)NC(=O)[C@H](CC(C)C)NC(=O)[C@H](CCCNC(=N)N)NC(=O)[C@H](CCC(=O)O)NC(=O)[C@H](C)NC(=O)[C@@H](NC(=O)[C@@H](N)CO)[C@@H](C)O)C(=O)NCC(N)=O)C(=O)NCC(N)=O [Example 37] (I: H-STAERLWFCG-NH2 / II: H-STAERLWFCG-NH2; disulfide I:9-II:9),0.5 to 200,,
N=C(N)NCCC[C@H](NC(=O)[C@H](CCC(=O)O)NC(=O)[C@H](CO)NC(=O)[C@H](CC(N)=O)NC(=O)[C@H](CO)NC(=O)[C@@H](N)CCC(N)=O)C(=O)N[C@@H](CCC(=O)O)C(=O)N[C@@H](Cc1c[nH]c2ccccc12)C(=O)N[C@@H](Cc1ccccc1)C(=O)N[C@@H](CSSC[C@H](NC(=O)[C@H](Cc1ccccc1)NC(=O)[C@H](Cc1c[nH]c2ccccc12)NC(=O)[C@H](CCC(=O)O)NC(=O)[C@H](CCCNC(=N)N)NC(=O)[C@H](CCC(=O)O)NC(=O)[C@H](CO)NC(=O)[C@H](CC(N)=O)NC(=O)[C@H](CO)NC(=O)[C@@H](N)CCC(N)=O)C(N)=O)C(N)=O [Example 39] (I: H-QSNSEREWFC-NH2 / II: H-QSNSEREWFC-NH2; disulfide I:10-II:10),> 200,,
N=C(N)NCCC[C@H](NC(=O)[C@H](CCC(=O)O)NC(=O)[C@H](CO)NC(=O)[C@H](CC(N)=O)NC(=O)[C@H](CO)NC(=O)[C@@H](N)CCC(N)=O)C(=O)N[C@@H](CCC(=O)O)C(=O)N[C@@H](Cc1c[nH]c2ccccc12)C(=O)N[C@@H](Cc1ccccc1)C(=O)N[C@@H](CSSC[C@H](NC(=O)[C@H](Cc1ccccc1)NC(=O)[C@H](Cc1c[nH]c2ccccc12)NC(=O)[C@H](CCC(=O)O)NC(=O)[C@H](CCCNC(=N)N)NC(=O)[C@H](CCC(=O)O)NC(=O)[C@H](CO)NC(=O)[C@H](CC(N)=O)NC(=O)[C@H](CO)NC(=O)[C@@H](N)CCC(N)=O)C(=O)NCC(N)=O)C(=O)NCC(N)=O [Example 41] (I: H-QSNSEREWFCG-NH2 / II: H-QSNSEREWFCG-NH2; disulfide I:10-II:10),> 200,,
CC(C)[C@H](NC(=O)[C@H](Cc1c[nH]c2ccccc12)NC(=O)[C@@H](NC(=O)[C@H](Cc1c[nH]c2ccccc12)NC(=O)CNC(=O)[C@H](CO)NC(=O)[C@H](CC(N)=O)NC(=O)[C@H](CO)NC(=O)[C@H](CCC(N)=O)NC(=O)[C@@H](N)CCC(=O)O)C(C)C)C(=O)NCC(=O)NCC(=O)NCC(=O)NCC(=O)N[C@@H](CSSC[C@H](NC(=O)CNC(=O)CNC(=O)CNC(=O)CNC(=O)[C@@H](NC(=O)[C@H](Cc1c[nH]c2ccccc12)NC(=O)[C@@H](NC(=O)[C@H](Cc1c[nH]c2ccccc12)NC(=O)CNC(=O)[C@H](CO)NC(=O)[C@H](CC(N)=O)NC(=O)[C@H](CO)NC(=O)[C@H](CCC(N)=O)NC(=O)[C@@H](N)CCC(=O)O)C(C)C)C(C)C)C(N)=O)C(N)=O [Example 46] (I: H-EQSNSGWVWVGGGGC-NH2 / II: H-EQSNSGWVWVGGGGC-NH2; disulfide I:15-II:15),0.5 to 200,,
"Ac-ESGWVW-NH2 [Example 42, Ac-ESGWVW-CONH2]",> 200,,
"Ac-NSGWVW-NH2 [Example 43, Ac-NSGWVW-CONH2]",> 200,,
CACMLRVVHC [Example 14],,Yes,Yes
CADEVMHFCC [Example 3],,Yes,Yes
CAGEVMHMCC [Example 1],,Yes,Yes
CDPWMFYDLC [Example 7],,Yes,No
CDVWQLFDRC [Example 4],,Yes,Yes
CETLCGACFC [Example 15],,No,No
CFWSDWGQTC [Example 11],,No,No
CHANPVWGEC [Example 9],,No,No
CNREIEAMCC [Example 2],,Yes,Yes
CPDWYQSYMC [Example 12],,Yes,Yes
CPHWTSYYMC [Example 13],,Yes,Yes
CQRAGYMLAC [Example 8],,No,No
CSFVQLNSIC [Example 5],,Yes,Yes
CVPWMFYDLC [Example 6],,Yes,No
"H-EQSNSGWVWV-NH2 [Example 35, NH2-EQSNSGWVWV-CONH2]",0.5 to 200,,
"H-EQSNSGWVWVGGGGC-NH2 [Example 45, NH2-EQSNSGWVWVGGGGC-CONH2]",0.5 to 200,,
H-KSTGGLTAERDAEKRRWLLTHGGE-OH [Example 66],> 200,,
"H-QSNSEREWFC-NH2 [Example 38, NH2-QSNSEREWFC-CONH2]",> 200,,
"H-QSNSEREWFCG-NH2 [Example 40, NH2-QSNSEREWFCG-CONH2]",> 200,,
"H-STAERLWFCG-NH2 [Example 36, NH2-STAERLWFCG-CONH2]",> 200,,

# — patent US6716811B1, “Compounds having affinity for the granulocyte-colony stimulating factor receptor (G-CSFR) and associated uses” (Affymax, Inc., priority 2000, dated 2004)
